# B1: Growth factor receptor-bound protein 14 (Homo sapiens), Q14449 (parent)
# chain: MTTSLQDGQSAASRAAARDSPLAAQVCGAAQGRGDAHDLAPAPWLHARALLPLPDGTRGCAADRRKKKDLDVPEMPSIPNPFPELCCSPFTSVLSADLFPKANSRKKQVIKVYSEDETSRALDVPSDITARDVCQLLILKNHYIDDHSWTLFEHLPHIGVERTIEDHELVIEVLSNWGIEEENKLYFRKNYAKYEFFKNPMYFFPEHMVSFATETNGEISPTQILQMFLSSSTYPEIHGFLHAKEQGKKSWKKIYFFLRRSGLYFSTKGTSKEPRHLQFFSEFGNSDIYVSLAGKKKHGAPTNYGFCFKPNKAGGPRDLKMLCAEEEQSRTCWVTAIRLLKYGMQLYQNYMHPYQGRSGCSSQSISPMRSISENSLVAMDFSGQKSRVIENPTEALSVAVEEGLAWRKKGCLRLGTHGSPTASSQSSATNMAIHRSQPWFHHKISRDEAQRLIIQQGLVDGVFLVRDSQSNPKTFVLSMSHGQKIKHFQIIPVEDDGEMFHTLDDGHTRFTDLIQLVEFYQLNKGVLPCKLKHYCARIAL
# Variants of: B1
# Details: with INSR
row,effect of a mutation on the interaction,Variant
1,increasing interaction strength,MTTSLQDGQSAASRAAARDSPLAAQVCGAAQGRGDAHDLAPAPWLHARALLPLPDGTRGCAADRRKKKDLDVPEMPSIPNPFPELCCSPFTSVLSADLFPKANSRKKQVIKVYSEDETSRALDVPSDITARDVCQLLILKNHYIDDHSWTLFEHLPHIGVERTIEDHELVIEVLSNWGIEEENKLYFRKNYAKYEFFKNPMYFFPEHMVSFATETNGEISPTQILQMFLSSSTYPEIHGFLHAKEQGKKSWKKIYFFLRRSGLYFSTKGTSKEPRHLQFFSEFGNSDIYVSLAGKKKHGAPTNYGFCFKPNKAGGPRDLKMLCAEEEQSRTCWVTAIRLLKYGMQLYQNYMHPYQGRAGCSAQSIAPMRSISENSLVAMDFSGQKSRVIENPTEALSVAVEEGLAWRKKGCLRLGTHGSPTASSQSSATNMAIHRSQPWFHHKISRDEAQRLIIQQGLVDGVFLVRDSQSNPKTFVLSMSHGQKIKHFQIIPVEDDGEMFHTLDDGHTRFTDLIQLVEFYQLNKGVLPCKLKHYCARIAL [S358A;S362A;S366A]

# From IntAct's records for PubMed 24535599
